How the values were obtained:
[1] = molecular target: hTLR2 extracellular domain, purified recombinant (human, UniProt O60603 21-588); assay: MST
[2] = molecular target: T1, zTLR4ba extracellular domain, purified recombinant (zebrafish); assay: MST
T1 chain: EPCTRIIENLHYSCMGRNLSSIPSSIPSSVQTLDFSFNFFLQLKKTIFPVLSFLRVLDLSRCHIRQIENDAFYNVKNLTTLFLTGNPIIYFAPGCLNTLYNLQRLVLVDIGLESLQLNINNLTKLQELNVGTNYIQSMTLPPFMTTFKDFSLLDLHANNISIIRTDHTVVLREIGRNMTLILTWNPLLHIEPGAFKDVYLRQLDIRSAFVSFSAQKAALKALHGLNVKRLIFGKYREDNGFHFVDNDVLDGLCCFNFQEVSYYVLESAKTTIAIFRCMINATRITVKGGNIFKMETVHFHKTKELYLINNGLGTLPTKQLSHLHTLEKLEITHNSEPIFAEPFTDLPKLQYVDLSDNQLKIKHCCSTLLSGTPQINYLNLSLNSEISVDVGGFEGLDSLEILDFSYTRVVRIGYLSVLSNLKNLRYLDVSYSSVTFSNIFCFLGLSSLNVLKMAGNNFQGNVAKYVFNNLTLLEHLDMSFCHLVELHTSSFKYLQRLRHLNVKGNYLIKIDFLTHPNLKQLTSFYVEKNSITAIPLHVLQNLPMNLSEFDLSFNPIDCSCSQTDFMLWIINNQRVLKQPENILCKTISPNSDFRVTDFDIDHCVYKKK

Chain of hTLR2 extracellular domain, purified recombinant (O60603 21-588): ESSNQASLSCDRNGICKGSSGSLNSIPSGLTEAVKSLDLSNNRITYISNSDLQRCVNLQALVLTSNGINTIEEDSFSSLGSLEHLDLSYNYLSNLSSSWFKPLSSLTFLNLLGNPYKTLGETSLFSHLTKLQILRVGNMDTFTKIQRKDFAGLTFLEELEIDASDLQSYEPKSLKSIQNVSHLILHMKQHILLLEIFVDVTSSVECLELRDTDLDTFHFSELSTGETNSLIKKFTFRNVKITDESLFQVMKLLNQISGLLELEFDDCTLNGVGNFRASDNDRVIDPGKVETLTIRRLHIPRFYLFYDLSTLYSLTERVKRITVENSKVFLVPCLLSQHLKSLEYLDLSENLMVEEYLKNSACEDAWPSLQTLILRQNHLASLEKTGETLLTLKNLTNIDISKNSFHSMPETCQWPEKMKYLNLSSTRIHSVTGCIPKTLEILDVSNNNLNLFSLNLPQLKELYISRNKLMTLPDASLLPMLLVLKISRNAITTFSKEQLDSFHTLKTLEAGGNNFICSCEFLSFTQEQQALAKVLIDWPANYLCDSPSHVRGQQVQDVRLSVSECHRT

B1: recombinant His-tagged SpaC protein (SpaC pilin subunit of Lactobacillus rhamnosus GG) (natural protein)
chain: MTAKVARTGHLFAVLLILMSMLTGLVTSGSSVVTATDNIRPTYQTDANGTYPTNSWQVTGQQNVINQRGGDQVSGWDNNTIWNGDATDTTNSYLKFGDPNNPDYQIRKYAKETNTPGLYDVYLNVKGNKQQNVKPVDIVLVVDMSGSMESNRWGTNRAGAVRTGVKNFLTSIQNAGLGNYVNVGLIGFSSPGYIGGKSGYISVKLGKAGNASQQQAINGALSPRFQGGTYTQIGLRQGSAMLNADTSGNKKMMILLTDGVPTFSNEVINSEWINGTLYGTNFGSSRDEPGNTARLRWPYTDSSGHYIYDTWPATLGEAKIAKDSGNEVHALGIQLADDDHYMTKEKIRQNMQLITNSPDLYEDADSADAVEAYLNNQAKDIIKNFNTVTDGTITDPIGTQFQYANNQATVTSVGKQTVPASELPSAAIQDGQLTVNHMNLGQDQEVQIHYQVRIKTEDAGFKPDFWYQMNGETLLTPKAGAAAVDFGIPSGRAPATTVYVQKQWRQLSNQSLPDTLNVTVQRKVADGSLDPNWQQTLVLKKADNWKASFTAPAYNNQGQSFSYVVKSEDASGIDLSSFISSQNMDQQTATLTLTNQQYGFQFQKKTTDGTDLSADQLKAMQFNLTQYSDNSFQQASKTNAITSTDLQALAPGYYGIQEAAAPTGYQLDGTTYLFQLTSDGQWQYHGTKDNVTSGSVINGQQTLNPVGDKSDDFTVTGDHQQILTLTKYDEPKPSMTLRVIKQDNQSQYLAGAAFTLQPSAGEAETITSSATSEGQAFATKLVADGTYTMSETKAPDGYQSNPAKIAIQVATTGKEATVTIDGEALKPGESKNGYTLAIDGSTITLQAINQPLAILPHTGGQGYQRLLGIALGLISAAFLLLLVVLIKRRVVKQHD
modifications: labelled with Monolith Protein Labeling Kit Red-NHS (in the MST only)
- Kd [1]: 190 nM
- Kd [2]: 2980 nM
